Sequences and labels used below:
B1: Fab VH5-51_IGHD5-18*01>3_IGHJ4*01 G100K/G104T G24T/S28R/G35V (H:KT TRV) & V3-4_IGLJ1*01 L24A (Fab, V domains shown)
VH: EVQLVQSGAEVKKPGESLKISCKTSGYRFTSYWIVWVRQMPGKGLEWMGIIYPGDSDTRYSPSFQGQVTISADKSISTAYLQWSSLKASDTAMYYCARRKYSYTYDYFDYWGQGTLVTVSS
VL: QTVVTQEPSFSVSPGGTVTLTCGASSGSVSTSYYPSWYQQTPGQAPRTLIYSTNTRSSGVPDRFSGSILGNKAALTITGAQADDESDYYCVLYMGSGISYVFGTGTKVTVL
notes: Fab; expressed in E. coli with CH1 (Plasmid A, His6 and Flag tags) and lambda CL (Plasmid E); also called H:KT TRV & L24A
B2: Fab VH5-51_IGHD5-18*01>3_IGHJ4*01 G100K/G104T G24T/S28R/G35V (H:KT TRV) & V3-4_IGLJ1*01 S36A (Fab, V domains shown)
VH: B1 VH
VL: B1 VL with A24L, S36A
notes: Fab; expressed in E. coli with CH1 (Plasmid A, His6 and Flag tags) and lambda CL (Plasmid E); also called H:KT TRV & S36A
B3: Fab VH5-51_IGHD5-18*01>3_IGHJ4*01 G100K/G104T G24T/S28R/G35V (H:KT TRV) & V3-4_IGLJ1*01 T53A (Fab, V domains shown)
VH: B1 VH
VL: B1 VL with A24L, T53A
notes: Fab; expressed in E. coli with CH1 (Plasmid A, His6 and Flag tags) and lambda CL (Plasmid E); also called H:KT TRV & T53A
B4: Fab VH5-51_IGHD5-18*01>3_IGHJ4*01 G100K/G104T G24T/S28R/G35V (H:KT TRV) & V3-4_IGLJ1*01 Y93A (Fab, V domains shown)
VH: B1 VH
VL: B1 VL with A24L, Y93A
notes: Fab; expressed in E. coli with CH1 (Plasmid A, His6 and Flag tags) and lambda CL (Plasmid E); also called H:KT TRV & Y93A
B5: Fab VH5-51_IGHD5-18*01>3_IGHJ4*01 G100K/G104T G24T/S28R/G35V (H:KT TRV) & V3-4_IGLJ1*01 Y34A (Fab, V domains shown)
VH: B1 VH
VL: B1 VL with A24L, Y34A
notes: Fab; expressed in E. coli with CH1 (Plasmid A, His6 and Flag tags) and lambda CL (Plasmid E); also called H:KT TRV & Y34A
B6: Fab VH5-51_IGHD5-18*01>3_IGHJ4*01 G100K/G104T G24T/S28R/G35V (H:KT TRV) & V3-4_IGLJ1*01 V91A (Fab, V domains shown)
VH: B1 VH
VL: B1 VL with A24L, V91A
notes: Fab; expressed in E. coli with CH1 (Plasmid A, His6 and Flag tags) and lambda CL (Plasmid E); also called H:KT TRV & V91A
B7: Fab VH5-51_IGHD5-18*01>3_IGHJ4*01 G100K/G104T G24T/S28R/G35V (H:KT TRV) & V3-4_IGLJ1*01 Y33A (Fab, V domains shown)
VH: B1 VH
VL: B1 VL with A24L, Y33A
notes: Fab; expressed in E. coli with CH1 (Plasmid A, His6 and Flag tags) and lambda CL (Plasmid E); also called H:KT TRV & Y33A
B8: Fab VH5-51_IGHD5-18*01>3_IGHJ4*01 G100K/G104T G24T/S28R/G35V (H:KT TRV) & V3-4_IGLJ1*01 S52A (Fab, V domains shown)
VH: B1 VH
VL: B1 VL with A24L, S52A
notes: Fab; expressed in E. coli with CH1 (Plasmid A, His6 and Flag tags) and lambda CL (Plasmid E); also called H:KT TRV & S52A
B9: Fab VH5-51_IGHD5-18*01>3_IGHJ4*01 G100K/G104T G24T/S28R/G35V (H:KT TRV) & V3-4_IGLJ1*01 S32A (Fab, V domains shown)
VH: B1 VH
VL: B1 VL with A24L, S32A
notes: Fab; expressed in E. coli with CH1 (Plasmid A, His6 and Flag tags) and lambda CL (Plasmid E); also called H:KT TRV & S32A
B10: Fab VH5-51_IGHD5-18*01>3_IGHJ4*01 G100K/G104T G24T/S28R/G35V (H:KT TRV) & V3-4_IGLJ1*01 G27A (Fab, V domains shown)
VH: B1 VH
VL: B1 VL with A24L, G27A
notes: Fab; expressed in E. coli with CH1 (Plasmid A, His6 and Flag tags) and lambda CL (Plasmid E); also called H:KT TRV & G27A
B11: Fab VH5-51_IGHD5-18*01>3_IGHJ4*01 G100K/G104T G24T/S28R/G35V (H:KT TRV) & V3-4_IGLJ1*01 G23A (Fab, V domains shown)
VH: B1 VH
VL: B1 VL with G23A, A24L
notes: Fab; expressed in E. coli with CH1 (Plasmid A, His6 and Flag tags) and lambda CL (Plasmid E); also called H:KT TRV & G23A
B12: Fab VH5-51_IGHD5-18*01>3_IGHJ4*01 G100K/G104T G24T/S28R/G35V (H:KT TRV) & V3-4_IGLJ1*01 S30A (Fab, V domains shown)
VH: B1 VH
VL: B1 VL with A24L, S30A
notes: Fab; expressed in E. coli with CH1 (Plasmid A, His6 and Flag tags) and lambda CL (Plasmid E); also called H:KT TRV & S30A
B13: Fab VH5-51_IGHD5-18*01>3_IGHJ4*01 G100K/G104T G24T/S28R/G35V (H:KT TRV) & V3-4_IGLJ1*01 T78V (Fab, V domains shown)
VH: B1 VH
VL: B1 VL with A24L, T78V
notes: Fab; expressed in E. coli with CH1 (Plasmid A, His6 and Flag tags) and lambda CL (Plasmid E); also called H:KT TRV & T78V
B14: Fab VH5-51_IGHD5-18*01>3_IGHJ4*01 G100K/G104T G24T/S28R/G35V (H:KT TRV) & V3-4_IGLJ1*01 S99A (Fab, V domains shown)
VH: B1 VH
VL: B1 VL with A24L, S99A
notes: Fab; expressed in E. coli with CH1 (Plasmid A, His6 and Flag tags) and lambda CL (Plasmid E); also called H:KT TRV & S99A
B15: Fab VH5-51_IGHD5-18*01>3_IGHJ4*01 G100K/G104T G24T/S28R/G35V (H:KT TRV) & V3-4_IGLJ1*01 I98A (Fab, V domains shown)
VH: B1 VH
VL: B1 VL with A24L, I98A
notes: Fab; expressed in E. coli with CH1 (Plasmid A, His6 and Flag tags) and lambda CL (Plasmid E); also called H:KT TRV & I98A
B16: Fab VH5-51_IGHD5-18*01>3_IGHJ4*01 G100K/G104T G24T/S28R/G35V (H:KT TRV) & V3-4_IGLJ1*01 M94A (Fab, V domains shown)
VH: B1 VH
VL: B1 VL with A24L, M94A
notes: Fab; expressed in E. coli with CH1 (Plasmid A, His6 and Flag tags) and lambda CL (Plasmid E); also called H:KT TRV & M94A
B17: Fab VH5-51_IGHD5-18*01>3_IGHJ4*01 G100K/G104T G24T/S28R/G35V (H:KT TRV) & V3-4_IGLJ1*01 P35A (Fab, V domains shown)
VH: B1 VH
VL: B1 VL with A24L, P35A
notes: Fab; expressed in E. coli with CH1 (Plasmid A, His6 and Flag tags) and lambda CL (Plasmid E); also called H:KT TRV & P35A
B18: Fab VH5-51_IGHD5-18*01>3_IGHJ4*01 G100K/G104T G24T/S28R/G35V (H:KT TRV) & V3-4_IGLJ1*01 S28A (Fab, V domains shown)
VH: B1 VH
VL: B1 VL with A24L, S28A
notes: Fab; expressed in E. coli with CH1 (Plasmid A, His6 and Flag tags) and lambda CL (Plasmid E); also called H:KT TRV & S28A
B19: Fab VH5-51_IGHD5-18*01>3_IGHJ4*01 G100K/G104T G24T/S28R/G35V (H:KT TRV) & V3-4_IGLJ1*01 T78K (Fab, V domains shown)
VH: B1 VH
VL: B1 VL with A24L, T78K
notes: Fab; expressed in E. coli with CH1 (Plasmid A, His6 and Flag tags) and lambda CL (Plasmid E); also called H:KT TRV & T78K
B20: Fab VH5-51_IGHD5-18*01>3_IGHJ4*01 G100K/G104T G24T/S28R/G35V (H:KT TRV) & V3-4_IGLJ1*01 S25A (Fab, V domains shown)
VH: B1 VH
VL: B1 VL with A24L, S25A
notes: Fab; expressed in E. coli with CH1 (Plasmid A, His6 and Flag tags) and lambda CL (Plasmid E); also called H:KT TRV & S25A
B21: Fab VH5-51_IGHD5-18*01>3_IGHJ4*01 G100K/G104T G24T/S28R/G35V (H:KT TRV) & V3-4_IGLJ1*01 G97A (Fab, V domains shown)
VH: B1 VH
VL: B1 VL with A24L, G97A
notes: Fab; expressed in E. coli with CH1 (Plasmid A, His6 and Flag tags) and lambda CL (Plasmid E); also called H:KT TRV & G97A

Changes are numbered by the printed parent chain. Numbers in names are those of the source.

21 molecules from US20120316071A1 (published 2012) can be followed below.

The assay concerns the target T1, Recombinant Human DLL4 (human, UniProt Q9NR61 27-524).
T1 construct: also called delta-like protein 4; rHuman DLL4
The experiment in a line: ELISA, DLL4 coated on plate, Fab at 100 nM, absorbance at 450 nm minus blank.
For B1, the “ELISA Signal-blank (100 nM Fab)” value amounted to 0.244.

As to B2, the “ELISA Signal-blank (100 nM Fab)” value turned out to be 0.38. The figure for B3 is 0.532; for B4 it is 0.185; for B5 it is 0.085.

Consider B6, for which the “ELISA Signal-blank (100 nM Fab)” value came to 0.606. The figure for B7 is 0.301; for B8 it is 0.574.

With B9, the “ELISA Signal-blank (100 nM Fab)” value was found to be 0.502. Consider B10, for which the “ELISA Signal-blank (100 nM Fab)” value amounted to 0.398. B11: the “ELISA Signal-blank (100 nM Fab)” value turned out to be 0.405. The figure for B12 is 0.344; for B13 it is 0.34. The figure for B14 is 0.3.

For B15, the “ELISA Signal-blank (100 nM Fab)” value was 0.162. The result for B16 reads 0.277; that for B17, 0.236; that for B18, 0.478. For B19, the “ELISA Signal-blank (100 nM Fab)” value stood at 0.48. The result for B20 reads 0.483.

Regarding B21, the “ELISA Signal-blank (100 nM Fab)” value came out at 0.129.
